Test: soluble fraction after stress (log2 fold change); higher = more stays soluble; pooled small domains, quantitative proteomics
Conditions: stress: 75 degC
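Note: 20 min heating vs room temperature control held 20 min.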

| Sequence | soluble fraction (log2) |
| --- | --- |
| HMGSNENTIREYFDSLIASASKREIMDANPTMSQRTVERILQKLQAEGYVEKIGAARSTRYRRA | -0.0404 |
| HMQDTVKNVFGAFTIFTDKPFAIGDTINVNGLEGTVVDVGMRSTQILGYDRRITSYPNYKITDSSIVNISS | -0.0554 |
| HMKPALFSADELNRLYRYGLSLTGERDRAYDLLQTALEKYLRQSQAPANAMRYVRKIMHNQFIDDYR | -1.53 |
| HMSKHAIQNELEKIEGIGKQTADSLLKEFKSVKKLRTLPLSEIEKVIGKSKATIVFEALHKDK | 0.00931 |
| HMLINPLDILRNFNLSLYDDSRDSASNKEIDEIFESIKTNNSHIFSTLKAYRIPLPIASLIIKKIIKITLE | -0.891 |
| HMNKEVDLPNFVGMTKENAQAQADKIKIKLEFEEEYSSDVEEGKIISQNPEYKENYKIKEKSTVSLKI | 0.312 |
| HMKGILVPASSIISDGDKNYVWTVEKGKAKKVEVTLGNADAENQEISSGLTKDSKVITNPTDSLKDGQEV | 0.228 |
| HMFSSVSVPAELSNQRFDKVVAELTPDLSRSKIKQLILLGKVLLNGEVTPPKQKVETGDEIEIFYTRQIE | -0.797 |
| HMKNTIPVPHIIGLSEQEARETLERAGLQLNVIKTEPNTKYESGQVTDTNPNEGIKVPKGTIVNVVLADS | -0.0118 |
| HMTLPGQDFIRASQLKELIAKYDKQYYEEGVSDISDAEYDRLYEEYLEFENKYPELKDMADAPTKRV | 0.659 |
| HMGQSKNERMLELVELLNKASRSYYQDAQEIMSNYEYDRLYDELQNLEKELGITLSNSPTVN | -0.122 |
| HMVWPETEAIVTEDFIGKKRSEVQQEGVIFEFFGEGDMVIDQLPRGGVTLNESGRVWIYLGEDTF | -0.78 |
| HMPKSKTPDDAAEEFRTAFSALDMDGKVTVKDMAEYMGVIDKTVYARLKKMGDEFTLDKGVITKKT | -0.104 |
| HMDAYLPETVQKLLDVMDFDVPYSAAQLMEKLGLKSRASFRKLYLLPALEKNLIAMGVPDKPTSRNQTYIR | -0.787 |
| HMIPTDPNGDLIKILYTSDQINELYARAKLNDVEDLFLDWTKNVLGESNFEETGPTKNEYLIPQ | -0.0775 |
| HMTNISDYILEEYYKNVYPNDLNTKRIVIPNKYEEYAGKYTYITIARMVTYEHDAKKALKVLHQQAT | -0.307 |
| HMVPQEVLPITLIIDGKLIEENLLYAKMTEQVLIQQLDINNIKSIKQILFAGLDSFGNFFYQEKQN | -2.5 |
| HMSGQLTEEQVKQIVTTAVKNSSGSTLTAAEVSRIVSTAVANNLTADQVKTVVNNALAGITTDISTLKA | 0.124 |
| HMESENANVNRAMLTGIASMHAGQLETALNKFNEVIQLAPDFAEGWNKRATIFYLMKKFDRSVNDIAQTLK | 0.0648 |
| HMDRQIQITVAENEAGQRLDAFLAAKIPDMSRSYIQKLIEDGLILVNGQSTKGKVKTYSGMNIEVYMPE | -0.0484 |
| HMEEHSLRKQEMLRIIEALEQLTPKEKTVVVLYYFKGVLFKDIAMLLDVTEGRISQLHTAAMGRLKKLMD | -0.14 |
| HMEDESSIERYLGSGAIKGIGPSLAARIVKKFGKDTFRIIEQEPERLAEIKGISERKAMEISTLMEEK | -0.056 |
| HMAGGNHPTRLELLDSAAHIAERDGTSALTVDAITKSAGHAKGTFYIHFDDRADLLVEMHRR | -0.247 |
| HMRNMVSVLDHIEGIGPKRRQLLYEHYGELEKIKEASVEEMAGLDGMNRPAAEAVYNFFLAQRNL | -0.247 |
| HMPKRYAGPDIIAIYGSDVFFRVGSGDGLMVIPVGRSMDNIEVVSVDAPRSVELMWKDGGPFTVPV | 0.145 |
| HMQTKNYVYFNNTENWSTVNVYVWSSKDSTYMSWPGKAMESIGNNTYRFELPNGAEYAIFNNGSAQTVD | -0.335 |
| HMQLDLNENEKIIFEILQNNKTMQLSNLKTQTELSNKGWDKAIKSLTKQGLAKVSKIDNELIVEFL | -0.466 |
| HMAPDYYALLGVPRNATTAEVRKAFRGKALEQHPDRGGDEESFRLLSKAYDVLSDSERRKYYDRTG | -0.0151 |

| Sequence | soluble fraction (log2) |
| --- | --- |
| HMLDSPHDDLNRKIVQMLQNDGRLPYKDIAEVLSVSEGTVRNRVQRMRDAGMLNIVALIDPMAI | -0.0197 |
| HMKHFNDEELDGFAGLKSDDYNEEQVELFRNIFEELHPDEIIEWTESLRRRGIEIPSSLKDEVVMMIN | 0.29 |
| HMEDTFEYPVSVNGKLRFKIELPVSMEKDEIRNIVLNDERAKKWLATGTLTNLIVVPNRIINIVIK | -0.528 |
| HMLADRANMAPAALRQIMTAIDGGNVTPKQIESATGMAHATVARALRKMLDDGLIANDGKGRYTVLT | -0.212 |
| HMGPRPLPAEFTHPSLRALLALGTTRGGVTSADVKTALEAASVPAGRRAAVLRALDDNGIEVHTEP | -0.0155 |
| HMKLKHANGNHPLTQQEKQNMIEEAAKHYGDYMTALGFDWKQDPNSSDTPMRVAKAFVNDLAEGVY | 0.0234 |
| HMELDFNSVYRQLNHEQKQAYQSIKSVLEQKISGSELDKKLKQAQQAFVAKFKENPNFEVPK | 0.608 |
| HMRPSGTAGILRYLSSGAIRGIGATTAQRLVSEFGEKTLDVMENEPERVAMLKGISKSKAEDFSLQLKQS | -0.0414 |
| HMIDVGSKIRSLRKSKNISISTLAKNSDLSTGLISQIERNMVVPSIVAMWKISKALDINIGYFFE | -3.13 |
| HMADDFISTLFSEGIIIDTEVKQFAERQGSPLQFVRHIASNLPEPRDIITMGEVRSVMREGA | -0.00121 |
| HMGQDLEAFLLKAVGQLDQGDGVTLDALLKVAVSNGGFVREVAEAKLDDMLDAGTLDEPRFGWFRVGAT | -0.41 |
| HMFKNWMPFDEARIFVRKLKFNSHDEFRKYLKANEINIPSKPWSTYKGKGWVSIGDFLGTHR | -3.26 |
| HMLEIDPPVDEISVSRKAFYEAAGYKVNPYTHIPPRYRKEFEEHSFVVMSWPRELPEETYRKFDRYLRDV | 0.0575 |
| HMGTELSYSEFLNKVEAGEVTNVTIRGPEITFQTGNSSYTTYAPDDPKLIEHLTAKGVAIKAGP | 0.608 |
| HMAKPAALLFEHRFDGMAEMRFRENIVKNDDGSYTYDEYFLSMLDRAGLEKIVQENMEVWIAYAKQ | -2.1 |
| HMTIPRLPFAFAKRFGIVLDNRPSGFVAAHKEGLLPHVLLEVQRFLGDAYTLEVVSDDDFERILGQVYQT | -3.72 |
| HMGYDLLFQQALGFHEQGRLNEAENIYRQILETAPNNPDILNLLGLIAQQKGLHAQAVDYFYQAIRL | -1.89 |
| HMVPTATVGENTSTLPVRQLPGGPVLVVLVRGDIVLPLPGHAFQNGDVWREISTVNGVIGWVPDEFLDY | -2.25 |
| HMSVLEHVSGNVRRLRLQAGLSQEALARAASVSRRMLVGIESGDVNVSLSTLDRIAAALGVLFPDLVQAP | -2.53 |
| HMGVTDLFAVLGFPRSPWLDAEELKQRHHALMADEASANSSPTILNEARRTLQNPALRIRHFLALEFPDH | -0.425 |
| HMRERLPFGFAQSKKVVLLSTESDTPKVLSVNWPSLDLYAELKRVIGRAFLLEIVSEEEFQAQVSDAYQRD | -2.47 |
| HMDKLEKRILDYLLQKSAIDGSTILKISHREMAMDLGTAREVVTRILKKLETGGFVRQGENYLEILK | -0.518 |
| HMKMLSIQRREAIRALLLEKESITIAEVMEKFQISVETARRDFDALADEGFLNKVYGGATLKK | -1.68 |
| HMSIQELMNSKDLSSFKVEMLSDEDIAKYKGLLQNSGLTEAQAEQMALQRGLPSSELLKLKARLSGI | 0.118 |
| HMGISQAQAMQALRKLIEEEDKHTPLSDQTLMERLKAAGIPLARRTIAKYRESLGIPSAAQRK | -0.266 |
| HMSQSYHLADRGQSLGTLDYQAVLVGLATGRLSPDTLSWQEGEAGWVALRQRPEFASGVSAVASL | 0.404 |
| HMSKMVEMSQEKSREKVARVKIEIQKMLDRKERVTVSGLERATGFSNSFFYRNEEVNQAVKEAQLKQ | -0.138 |

Source: the domain aggregation screens of Martell et al. (2025)
